From PMC10696396, “HilE represses the activity of the Salmonella virulence regulator HilD via a mechanism distinct from that of intestinal long-chain fatty acids” (The Journal of Biological Chemistry, 2023) come the findings set out here.

Data set [1] deals with the molecule itself. Kind of data set: SEC-MALS; Superdex 75 Increase 10/300 GL, 50 mM NaH2PO4 pH 7.0, 200 mM NaCl, 0.5 ml/min; protein concentrations of 100 μM (Fig. 4, D and E).
Data set [2] concerns the target T1, EYFP-HilD (Salmonella enterica, UniProt P0CL08 1-309).
T1 construct: HilD of Salmonella enterica, UniProt P0CL08; eyfp was ligated (BamHI/EheI) into the SUMO-HilD expression vector that gives the full-length HilD; EYFP is the fluorescent label used for MST detection; also called EYFP-HilD fusion protein; source: E. coli C41(DE3), purified (Ni-NTA, SUMO protease cleavage, second Ni-NTA, SEC on Superdex 200); not shown: His6-SUMO, N-terminal, cleaved; EYFP, …
T1 sequence: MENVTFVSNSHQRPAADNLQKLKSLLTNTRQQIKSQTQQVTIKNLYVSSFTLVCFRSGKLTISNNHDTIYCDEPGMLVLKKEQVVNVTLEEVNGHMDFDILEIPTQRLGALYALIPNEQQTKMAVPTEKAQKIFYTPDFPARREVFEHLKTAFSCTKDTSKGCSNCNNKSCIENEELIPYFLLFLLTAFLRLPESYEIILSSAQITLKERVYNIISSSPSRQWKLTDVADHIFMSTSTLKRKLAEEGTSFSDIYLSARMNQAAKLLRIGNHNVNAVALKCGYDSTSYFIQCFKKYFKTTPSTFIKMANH
Kind of data set: MST; homodimerization: unlabeled HilD (3.05 nM to 100 μM) titrated against 50 nM EYFP-HilD; 25 °C, 0.05% Pluronic F-127, protein storage buffers; dimer to monomers. Particulars: both partners purified.

Data set [3] concerns the target T1, EYFP-HilD. The data set can be described thus: MST; homodimerization: unlabeled HilD titrated against EYFP-HilD preincubated with 1% DMSO; MST on-time 1.5 s, 25 °C. Particulars: both partners purified.

B1: HilD (full-length, unfused) (natural protein)
chain: MENVTFVSNSHQRPAADNLQKLKSLLTNTRQQIKSQTQQVTIKNLYVSSFTLVCFRSGKLTISNNHDTIYCDEPGMLVLKKEQVVNVTLEEVNGHMDFDILEIPTQRLGALYALIPNEQQTKMAVPTEKAQKIFYTPDFPARREVFEHLKTAFSCTKDTSKGCSNCNNKSCIENEELIPYFLLFLLTAFLRLPESYEIILSSAQITLKERVYNIISSSPSRQWKLTDVADHIFMSTSTLKRKLAEEGTSFSDIYLSARMNQAAKLLRIGNHNVNAVALKCGYDSTSYFIQCFKKYFKTTPSTFIKMANH
notes: HilD, AraC/XylS transcription regulator of Salmonella enterica, UniProt P0CL08; Exclusively a homodimer alone by SEC-MALS; a single copy stands in the 1:1 complex with HilE; also called unlabeled HilD; unfused HilD; source: E. coli C41(DE3), purified (Ni-NTA, SUMO protease cleavage, second Ni-NTA, SEC); not shown: His6-SUMO, N-terminal, cleaved
Take B1: the “stoichiometry N” value in data set [1] is 2. The Kd amounted to 3.85 ± 0.63 µM with EYFP-HilD [2] and 4.33 ± 0.72 µM with EYFP-HilD [3].

B2: HilD NTD (residues 7-206) (domain or fragment)
chain: VSNSHQRPAADNLQKLKSLLTNTRQQIKSQTQQVTIKNLYVSSFTLVCFRSGKLTISNNHDTIYCDEPGMLVLKKEQVVNVTLEEVNGHMDFDILEIPTQRLGALYALIPNEQQTKMAVPTEKAQKIFYTPDFPARREVFEHLKTAFSCTKDTSKGCSNCNNKSCIENEELIPYFLLFLLTAFLRLPESYEIILSSAQIT
notes: a His6 tag stands in place of the first six residues of HilD; No cleavage of the His6 tag is described (no protease site, purification goes from Ni-NTA to SEC); also called HilD_(7-206) (NTD); His6-tagged HilD NTD construct; source: E. coli C41(DE3), purified (Ni-NTA, SEC on Superdex 75); not shown: His6, N-terminal, kept
B2: in data set [1], the “stoichiometry N” value came to 2.
